As usually defined, the Kd is the constant that tells how readily two partners part at equilibrium. Read a high Kd as a looser complex. A word on the stoichiometry N: it is the number of molecules, sites or subunits per partner or assembly.

The target in the first experiment is full-length wild-type p97 (^FLp97^wt) (UniProt P55072). In words: GST pull-down. To be noted: 2 mM AMP-PNP; n=3; parent: est. 1.0; read off a plot.
full-length wild-type p97 (^FLp97^wt), sequence (P55072 whole entry): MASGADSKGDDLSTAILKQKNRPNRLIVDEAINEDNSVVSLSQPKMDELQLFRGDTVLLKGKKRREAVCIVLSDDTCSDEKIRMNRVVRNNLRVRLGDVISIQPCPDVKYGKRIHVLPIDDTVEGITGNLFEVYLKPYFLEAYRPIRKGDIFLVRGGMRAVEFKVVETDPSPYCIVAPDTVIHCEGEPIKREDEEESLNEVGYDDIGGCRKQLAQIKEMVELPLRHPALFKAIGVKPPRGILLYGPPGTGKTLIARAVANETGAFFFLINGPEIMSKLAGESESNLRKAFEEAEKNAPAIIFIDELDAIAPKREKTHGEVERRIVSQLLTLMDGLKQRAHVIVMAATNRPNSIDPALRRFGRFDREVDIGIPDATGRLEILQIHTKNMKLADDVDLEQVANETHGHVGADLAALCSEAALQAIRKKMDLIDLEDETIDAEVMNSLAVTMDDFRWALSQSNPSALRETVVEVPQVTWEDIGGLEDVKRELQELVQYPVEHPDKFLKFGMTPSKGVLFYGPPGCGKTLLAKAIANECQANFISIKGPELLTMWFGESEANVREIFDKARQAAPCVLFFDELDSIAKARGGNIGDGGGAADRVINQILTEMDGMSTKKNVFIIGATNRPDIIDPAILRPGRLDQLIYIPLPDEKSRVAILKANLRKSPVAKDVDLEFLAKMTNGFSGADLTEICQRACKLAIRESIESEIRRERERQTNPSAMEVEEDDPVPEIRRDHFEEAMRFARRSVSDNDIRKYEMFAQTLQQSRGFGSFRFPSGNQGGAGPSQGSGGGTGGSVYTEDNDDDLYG
For GST-tagged VIMP-N10 K77A, the ratio to parent came out at 0.8.

With GST-tagged VIMP-N10 K88A, the ratio to parent came to 0.14.

As to GST-tagged VIMP-N10 L82A, the ratio to parent amounted to 0.14.

On to GST-tagged VIMP-N10 L93A, for which the ratio to parent amounted to 0.17.

In the case of GST-tagged VIMP-N10 M89A, the ratio to parent was 0.24.

For GST-tagged VIMP-N10 Q79A, the ratio to parent turned out to be 0.87.

For GST-tagged VIMP-N10 R78A, the ratio to parent is 0.24.

In the case of GST-tagged VIMP-N10 R86A, the ratio to parent was determined as 0.07.

Take GST-tagged VIMP-N10 V97A: the ratio to parent was determined as 0.04.

In another experiment the target is Np97 (N domain alone of wild-type p97) (UniProt P55072). The experiment in a line: ITC; VIMPx titrated into p97; iTC200, 25 C; 50 mM Tris pH 8.0, 150 mM NaCl, 2 mM MgCl2, 5% glycerol; no nucleotide added; one-site model.
Np97 (N domain alone of wild-type p97), sequence (P55072 whole entry): as above
Details: not given
(ITC needs no label: the signal is the heat of the interaction.)
In turn, “VIMPx (VCP-interacting membrane protein, residues 49-122) (from UniProt Q9BQE4 49-122) (domain or fragment)” yielded a Kd of 6.58 µM and a stoichiometry N of 1.27.

A further experiment concerns the target VIMP of canine pancreas microsomes (dog (endogenous in canine pancreas microsomes)). The experiment in a line: co-IP; immunodepletion: canine pancreas microsomes solubilized in 1% deoxyBigCHAP, supernatant incubated three times with Protein A beads containing anti-VIMP antibodies; unbound fractions immunoblotted.
Details: not given
On to “ER membrane-associated p97 of canine pancreas microsomes (natural protein)”, for which the percent of microsome-associated p97 lost by co-depletion with VIMP is under 90%.

Values taken from publication PMC5725882.
